B1: DNA repair protein RAD9 (Saccharomyces cerevisiae), P14737 (parent)
chain: MSGQLVQWKSSPDRVTQSAIKEALHSPLADGDMNEMNVPVDPLENKVNSTNIIEGSPKANPNPVKFMNTSEIFQKSLGLLDESPRHDDELNIEVGDNDRPNANILHNERTPDLDRIANFFKSNRTPGKENLLTKYQSSDLEDTPLMLRKKMTFQTPTDPLEQKTFKKLKSDTGFCYYGEQNDGEENASLEVTEADATFVQMAERSADNYDCALEGIVTPKRYKDELSKSGGMQDERVQKTQIMISAESPNSISSYDKNKITGNGRTTRNVNKVFNNNEDNIGAIEEKNPVKKKSENYSSDDLRERNNQIIQSNESEEINELEKNLNVSGRENDVNNLDIDINSAVSGTPSRNNAEEEMYSSESVNNREPSKKWIFRYSKDKTENNSNRSTQIVNNPRTQEMPLDSISIDTQPLSKSFNTETNNELETQIIVSSLSQGISAQKGPVFHSTGQTEEIKTQIINSPEQNALNATFETPVTLSRINFEPILEVPETSSPSKNTMSKPSNSSPIPKEKDTFNIHEREVETNNVFSNDIQNSSNAATRDDIIIAGSSDFNEQKEITDRIYLQLSGKQISDSGSDETERMSPNELDTKKESTIMSEVELTQELPEVEEQQDLQTSPKKLVVEEETLMEIKKSKGNSLQLHDDNKECNSDKQDGTESLDVALIEHESKGQSSELQKNLMQLFPSESQEIIQNRRTIKRRQKDTIEIGEEEENRSTKTSPTKHLKRNSDLDAASIKREPSCSITIQTGETGSGKDSKEQSYVFPEGIRTADNSFLSKDDIIFGNAVWCQYTWNYKFYPGILLEVDTNQDGCWIYFETGRSLTKDEDIYYLDIRIGDAVTFDGNEYVVVGLECRSHDLNIIRCIRGYDTVHLKKKNASGLLGKRTLIKALSSISLDLSEWAKRAKIILEDNEKNKGDAYRYLRHPIRGRKSMTNVLSPKKHTDDEKDINTHTEVYNNEIESSSEKKEIVKKDSRDALAEHAGAPSLLFSSGEIRTGNVFDKCIFVLTSLFENREELRQTIESQGGTVIESGFSTLFNFTHPLAKSLVNKGNTDNIRELALKLAWKPHSLFADCRFACLITKRHLRSLKYLETLALGWPTLHWKFISACIEKKRIVPHLIYQYLLPSGESFRLSLDSPSKGGIIKSNNIFSFYTQFLRGSNLRDQICGVKKMLNDYIVIVWGRSELDSFVKFAFACLSAGRMLTIDLPNIDVDDTEPLLNALDSLVPRIGSELSNRKLKFLIYANENNGKSQMKLLERLRSQISLKFKKFNYIFHTESKEWLIQTIINEDTGFHDDITDNDIYNTISEVR

Results on 1 variant are retold here after IntAct's records for PubMed 17721446.

The experiment covers variants of B1. To be noted: with h2a1_yeast HTA1, P04911.
h2a1_yeast HTA1, P04911, sequence (P04911 whole entry): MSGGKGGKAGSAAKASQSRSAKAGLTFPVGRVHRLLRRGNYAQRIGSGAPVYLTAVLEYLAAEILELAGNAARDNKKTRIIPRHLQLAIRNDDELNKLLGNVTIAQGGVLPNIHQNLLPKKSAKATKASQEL
Consider K1088M, for which the “effect of a mutation on the interaction” value was “disrupting interaction”.
